In patent publication US20240245796A1 (PROFOUNDBIO US, published 2024):

Legend:
[1] = target: T1, human FOLR3 extracellular domain linked to His tag (human, UniProt P41439 23-245, limits assumed); experiment: BLI, Ag 31.3 nM; * = below range of quantification
T1 construct: extracellular domain; Antigen in solution in BLI; also called Hu-FRg; not shown: His tag

[2] = target: T2, human FOLR2 extracellular domain linked to His tag (human, UniProt P14207 17-230, limits assumed); experiment: BLI, Ag 31.3 nM; * = below range of quantification
T2 construct: extracellular domain; Antigen in solution in BLI; also called Hu-FRb; not shown: His tag

[3] = target: T3, human FOLR1 extracellular domain linked to His tag (human, UniProt P15328 25-233, limits assumed); experiment: BLI, global 1:1 fit (500 nM row)
T3 construct: extracellular domain; It may be the same product as m13; also called Hu-FRα; Hu-Ag; not shown: His tag

[4] = target: T2, human FOLR2 extracellular domain linked …; experiment: BLI, global 1:1 fit (500 nM row)
[5] = target: T4, rat FOLR1 extracellular domain linked to His tag (rat); experiment: BLI, Ag 7.82 nM; * = below range of quantification
T4 construct: extracellular domain; Antigen in solution in BLI; also called Rat-Ag

[6] = target: T3, human FOLR1 extracellular domain linked …; experiment: BLI, global 1:1 fit (500 nM row); remark: listed apart in the source
[7] = target: T5, cynomolgus monkey FOLR1 extracellular domain linked to His tag (cynomolgus monkey, UniProt A0A2K5U044 25-233); experiment: BLI, global 1:1 fit (500 nM row)
T5 construct: extracellular domain; Antigen in solution in BLI; It may be the same product as m14; also called Cyno-Ag; not shown: His tag

[8] = target: T1, human FOLR3 extracellular domain linked …; experiment: BLI, global 1:1 fit (62.5 nM row); all responses below quantification
[9] = target: T6, mouse FOLR1 extracellular domain linked to His tag (mouse, UniProt P35846 25-232, limits assumed); experiment: BLI, Ag 500 nM over Ab on anti-hIgG Fc tip
T6 construct: extracellular domain; Antigen in solution in BLI; also called Mouse-Ag; not shown: His tag

[10] = target: T3, human FOLR1 extracellular domain linked …; experiment: BLI, Ag 500 nM over Ab on anti-hIgG Fc tip
[11] = target: T5, cynomolgus monkey FOLR1 extracellular …; experiment: BLI, Ag 500 nM over Ab on anti-hIgG Fc tip
[12] = target: T4, rat FOLR1 extracellular domain linked …; experiment: BLI, global 1:1 fit (125 nM row); all responses below quantification
[13] = target: T1, human FOLR3 extracellular domain linked …; experiment: BLI, Ag 7.82 nM; * = below range of quantification
[14] = target: T2, human FOLR2 extracellular domain linked …; experiment: BLI, Ag 7.82 nM; * = below range of quantification
[15] = target: T3, human FOLR1 extracellular domain linked …; experiment: BLI, Ag 15.6 nM over Ab on anti-hIgG Fc tip
[16] = target: T5, cynomolgus monkey FOLR1 extracellular …; experiment: BLI, Ag 15.6 nM over Ab on anti-hIgG Fc tip
[17] = target: T3, human FOLR1 extracellular domain linked …; experiment: BLI, global 1:1 fit (7.82 nM row)
[18] = target: T2, human FOLR2 extracellular domain linked …; experiment: BLI, global 1:1 fit (7.82 nM row)
[19] = target: T3, human FOLR1 extracellular domain linked …; experiment: BLI, Ag 125 nM over Ab on anti-hIgG Fc tip
[20] = target: T5, cynomolgus monkey FOLR1 extracellular …; experiment: BLI, Ag 125 nM over Ab on anti-hIgG Fc tip
[21] = target: T3, human FOLR1 extracellular domain linked …; experiment: BLI, Ag 500 nM over Ab on anti-hIgG Fc tip; remark: listed apart in the source
[22] = target: T2, human FOLR2 extracellular domain linked …; experiment: BLI, Ag 500 nM over Ab on anti-hIgG Fc tip
[23] = target: T3, human FOLR1 extracellular domain linked …; experiment: BLI, global 1:1 fit (15.6 nM row)
[24] = target: T5, cynomolgus monkey FOLR1 extracellular …; experiment: BLI, global 1:1 fit (15.6 nM row)

T5 sequence (A0A2K5U044 entry or part of it): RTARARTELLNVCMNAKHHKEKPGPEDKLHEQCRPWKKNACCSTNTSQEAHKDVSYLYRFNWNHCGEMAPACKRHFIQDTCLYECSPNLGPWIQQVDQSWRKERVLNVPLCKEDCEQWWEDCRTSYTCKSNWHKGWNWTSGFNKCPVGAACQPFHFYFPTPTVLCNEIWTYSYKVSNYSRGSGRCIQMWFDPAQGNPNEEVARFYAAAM
T3 sequence (P15328 25-233 limits assumed): as the sequence (A0A2K5U044 entry or part of it) above, with T2I, R4W, K37R, P146A, Y171H counted along it
T1 sequence (P41439 23-245 limits assumed): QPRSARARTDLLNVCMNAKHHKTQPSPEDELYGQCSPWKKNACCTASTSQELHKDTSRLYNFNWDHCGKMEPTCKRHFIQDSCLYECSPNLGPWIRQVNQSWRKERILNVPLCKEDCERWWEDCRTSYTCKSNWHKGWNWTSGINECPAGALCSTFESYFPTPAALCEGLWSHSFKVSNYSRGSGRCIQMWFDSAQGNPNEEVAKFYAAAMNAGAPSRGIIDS
T2 sequence (P14207 17-230 limits assumed): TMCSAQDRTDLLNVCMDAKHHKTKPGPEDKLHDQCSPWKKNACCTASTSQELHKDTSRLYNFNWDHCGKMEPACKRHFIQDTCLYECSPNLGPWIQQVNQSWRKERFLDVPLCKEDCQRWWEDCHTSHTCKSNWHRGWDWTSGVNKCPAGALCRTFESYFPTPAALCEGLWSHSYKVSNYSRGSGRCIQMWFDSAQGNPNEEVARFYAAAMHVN
T6 sequence (P35846 25-232 limits assumed): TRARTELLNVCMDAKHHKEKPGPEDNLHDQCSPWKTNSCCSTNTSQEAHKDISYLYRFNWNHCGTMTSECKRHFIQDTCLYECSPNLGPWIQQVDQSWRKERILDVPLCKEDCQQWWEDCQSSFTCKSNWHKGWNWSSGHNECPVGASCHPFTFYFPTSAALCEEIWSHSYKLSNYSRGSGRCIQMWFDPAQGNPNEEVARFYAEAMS

B1: F131 (antibody, V domains shown)
VH: EVQLLESGGGVVQPGRSLRLSCAASGFTFSSYGMHWVRQAPGKGLEWVAVISYDGSNKYYADSVKGRFTISRANSKNTLYLQMNSLRAEDTAVYYCARPRAYYGAYGSSFDYWGQGTQVTVSS
VL: EIVMTQSPSSVSASVGDRVAITCRASQGISSWLAWYQQKPGKAPKLLIYAASSLQSGVPSRFSGSGSGTDFTLTISSLQPEDFATYYCQQSYSTPLTFGGGTKVDIK
notes: also called clone F131; F131 mAb
Question: For B1, which Response [1] is on record?
Answer: The Response was 0.0028.

Question: What about the Response [2] of the same binder?
Answer: The Response was 0.0068.

Question: What about the koff [3] of the same binder?
Answer: The koff was 0.0012 s⁻¹.

Question: And the kon [3]?
Answer: Its kon is 226000 M⁻¹ s⁻¹.

Question: And the Kd [4]?
Answer: Its Kd is 142 nM.

Question: And the koff [4]?
Answer: The koff was 0.0784 s⁻¹.

Question: And the kon [4]?
Answer: The kon was 552000 M⁻¹ s⁻¹.

Question: And the Response [5]?
Answer: Its Response is -0.00563.

Question: And the koff [6]?
Answer: Its koff is 0.000338 s⁻¹.

Question: And the kon [6]?
Answer: Its kon is 221000 M⁻¹ s⁻¹.

Question: What about the Kd [7] of the same binder?
Answer: Its Kd is 8.15 nM.

Question: What about the koff [7] of the same binder?
Answer: Its koff is 0.00157 s⁻¹.

Question: And the kon [7]?
Answer: Its kon is 193000 M⁻¹ s⁻¹.

Question: And the koff [8]?
Answer: The koff was 0.217 s⁻¹.

Question: And the kon [8]?
Answer: The kon was 1660 M⁻¹ s⁻¹.

Question: And the Response [9]?
Answer: Its Response is 0.0167.

Question: And the Response [10]?
Answer: Its Response is 0.181.

Question: What about the Response [11] of the same binder?
Answer: Its Response is 0.219.

Question: What about the koff [12] of the same binder?
Answer: The koff was 1.03 s⁻¹.

Question: What about the kon [12] of the same binder?
Answer: The kon was 5490 M⁻¹ s⁻¹.

Question: What about the Response [13] of the same binder?
Answer: Its Response is 0.00103.

Question: What about the Response [14] of the same binder?
Answer: Its Response is 0.0011.

Question: What about the Response [15] of the same binder?
Answer: Its Response is 0.0503.

Question: And the Response [16]?
Answer: The Response was 0.0485.

Question: What about the Kd [17] of the same binder?
Answer: The Kd was 5.3 nM.

Question: What about the koff [17] of the same binder?
Answer: The koff was 0.0012 s⁻¹.

Question: And the kon [17]?
Answer: The kon was 226000 M⁻¹ s⁻¹.

Question: What about the Kd [18] of the same binder?
Answer: Its Kd is 142 nM.

Question: And the koff [18]?
Answer: The koff was 0.0784 s⁻¹.

Question: What about the kon [18] of the same binder?
Answer: Its kon is 552000 M⁻¹ s⁻¹.

Question: What about the Response [19] of the same binder?
Answer: The Response was 0.146.

Question: And the Response [20]?
Answer: The Response was 0.177.

Question: And the Response [21]?
Answer: The Response was 0.192.

Question: And the Response [22]?
Answer: The Response was 0.037.

Question: And the Kd [23]?
Answer: The Kd was 1.53 nM.

Question: What about the koff [23] of the same binder?
Answer: The koff was 0.000338 s⁻¹.

Question: And the kon [23]?
Answer: The kon was 221000 M⁻¹ s⁻¹.

Question: What about the Kd [24] of the same binder?
Answer: The Kd was 8.15 nM.

Question: And the koff [24]?
Answer: The koff was 0.00157 s⁻¹.

Question: What about the kon [24] of the same binder?
Answer: Its kon is 193000 M⁻¹ s⁻¹.

B2: F131-LD038 (antibody, V domains shown)
VH: EVQLLESGGGVVQPGRSLRLSCAASGFTFSSYGMHWVRQAPGKGLEWVAVISYDGSNKYYADSVKGRFTISRANSKNTLYLQMNSLRAEDTAVYYCARPRAYYGAYGSSFDYWGQGTQVTVSS
VL: EIVMTQSPSSVSASVGDRVAITCRASQGISSWLAWYQQKPGKAPKLLIYAASSLQSGVPSRFSGSGSGTDFTLTISSLQPEDFATYYCQQSYSTPLTFGGGTKVDIK
modifications: drug-linker LD038 (PB038, maleimide-PEG unit-Val-Cit-PAB-exatecan) on cysteines freed by TCEP reduction; positions not given
notes: Antibody-drug conjugate of F131 (IgG1) with LD038; also called anti-huFOLR-1 conjugate F131-LD038; F131-038
Question: What does the source list for B2?
Answer: Response [1]: 0.0079; Response [2]: 0.0076; Kd [3]: 4.79 nM; koff [3]: 0.00121 s⁻¹; kon [3]: 252000 M⁻¹ s⁻¹; Kd [4]: 84.4 nM; koff [4]: 0.0813 s⁻¹; kon [4]: 963000 M⁻¹ s⁻¹; Response [5]: -0.00438; Kd [6]: 4.8 nM; koff [6]: 0.00107 s⁻¹; kon [6]: 224000 M⁻¹ s⁻¹; Kd [7]: 8.82 nM; koff [7]: 0.0016 s⁻¹; kon [7]: 181000 M⁻¹ s⁻¹; koff [8]: 0.233 s⁻¹; Response [9]: 0.0125; Response [10]: 0.205; Response [11]: 0.186; koff [12]: 0.224 s⁻¹; kon [12]: 2.64e+06 M⁻¹ s⁻¹; Response [13]: 0.0004; Response [14]: 0.002; Response [15]: 0.0447; Response [16]: 0.0384; Kd [17]: 4.79 nM; koff [17]: 0.00121 s⁻¹; kon [17]: 252000 M⁻¹ s⁻¹; Kd [18]: 84.4 nM; koff [18]: 0.0813 s⁻¹; kon [18]: 963000 M⁻¹ s⁻¹; Response [19]: 0.158; Response [20]: 0.152; Response [21]: 0.222; Response [22]: 0.0427; Kd [23]: 4.8 nM; koff [23]: 0.00107 s⁻¹; kon [23]: 224000 M⁻¹ s⁻¹; Kd [24]: 8.82 nM; koff [24]: 0.0016 s⁻¹; kon [24]: 181000 M⁻¹ s⁻¹
